Target: T1, ARG2 (Homo sapiens, UniProt P78540)
T1 sequence (P78540 23-354): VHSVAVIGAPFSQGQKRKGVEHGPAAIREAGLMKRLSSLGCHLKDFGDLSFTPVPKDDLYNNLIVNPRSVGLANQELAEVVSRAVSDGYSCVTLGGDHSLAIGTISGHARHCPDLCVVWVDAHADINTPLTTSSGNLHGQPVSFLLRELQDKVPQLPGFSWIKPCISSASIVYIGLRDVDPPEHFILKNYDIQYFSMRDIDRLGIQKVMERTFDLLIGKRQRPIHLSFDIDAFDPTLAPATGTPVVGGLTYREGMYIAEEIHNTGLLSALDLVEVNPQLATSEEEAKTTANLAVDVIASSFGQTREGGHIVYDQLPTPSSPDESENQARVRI
Assay: T cell proliferation assay (BrdU, 96 hours) with exogenous ARG2, improved variant IgGs
Assay type: cell-based
Details: In Absence of rhARG2, hIgG1
Procedure: This assay served to provide evidence of improved functional efficacy for each affinity-matured antibody in comparison to the parent IgG, C0020187 (FIG. 12).
Lead optimisation clones were tested to an endpoint treatment time of 96 hours and the BrdU Cell Proliferation Kit (Roche, France; Cat: 11647229001) was used according to the manufacturer's instructions. R347 was used as the irrelevant control. All clones tested n=2.
Leukocyte cones underwent Ficoll Plaque (GE, Sweden; Cat: 17-1440-02) gradient separation, PBMC's were extracted and pan T cell population isolated by negative selection using the Human T Cell Enrichment Kit (Stemcell Technologies, France; Cat: 19051) according to the manufacturer's instructions.
40000 cells/well were seeded in complete growth media (RMPI 1640, 5% Human Serum Albumin) into a 96 well clear TC treated microplate (Greiner-Bio One, Germany; Cat: 655180). T cells were activated by the addition of ImmunoCult CD3/CD28 (Stemcell Technologies, France; Cat: 10971) at a dilution of 1:40 directly into wells and the plate incubated 37° C., 5% CO2 for 45 minutes.
To determine EC50's of test antibodies, a dilution series was created in sterile TBS/NaCl Buffer at 10× the final assay concentration added to the assay plate containing cells. Plate was incubated for 30 minutes at 37° C., 5% CO2.
ARG2 was added to relevant wells of the plate at a final concentration of 15 μg/ml. The equivalent volume of ARG2 vehicle and test antibody vehicle was added to relevant control wells. The total volume in each well was 200 μl. Cells were treated with test antibodies for a total of 96 hours at 37° C., 5% CO2. Antibodies were tested alongside C0020187 (parent IgG) as a positive control and R347 (irrelevant isotype control antibody) as a negative control.
Assessment of T cell proliferation was performed using the BrdU Cell Proliferation ELISA Kit (Roche, Germany; Cat: 000000011647229001). BrdU labelling reagent was added after 78 hours of antibody treatment and the plate further incubated for 18 hours at 37° C., 5% CO2. The remainder of the assay was performed according to the manufacturer's instructions.
Calculated data was expressed as % of control (Equation 3) and graphical plots were constructed using a four parameter fit and EC50's determined using model 205 in XLFit (IDBS, UK).
All test sample data was corrected for background (mean of no cell control)
% Control=100*((Test Sample−Mean Positive Control)/(Mean Negative Control−Mean Positive Control)) Equation 3:
Mean Positive Control=T Cells in absence of ARG2
Mean Negative Control=T Cells in presence of ARG2
This assay served to provide evidence of improved functional efficacy for each affinity-matured antibody in comparison to the parent IgG, C0020187 (FIG. 14, Table 19). R347 was used as the irrelevant control. All clones tested n=2. Reference section 2.9 for methodology.

Row | Molecule | EC50 (96 hours) [pM] | Maximum % Proliferation (96 hours) [%] | EC50 (top conc 2 μM, n=2) [pM] | Maximum % Proliferation (top conc 2 μM, n=2) [%]
1 | C0021061: anti-ARG2 antibody, first generation lead, VH SEQ ID NO: 62, VL SEQ ID NO: 67 (antibody, listed as Homo sapiens, V domains shown, C0021061) VH: EVQLLESGGGLVQPGGSLRLSCAASGFTFSSYAMSWVRQAPGKGLEWVSAKPTDAGSTYYADSVKGRFTISRDNSKNTLYLQMNSLRAEDTAVYYCARLRADLGLYMDLWGRGTLVTVSS VL: QSVLTQPPSVSAAPGQKVTISCSGSSSNIGNHYVSWYQQLPGTAPKLLIYNTVYPKSGIPDRFSGSKSGTSATLGITGLQTGDEADYYCGTWDSSLSALVFGGGTKLTVL | < 900 | 99 | < 900 | 93
2 | C0021158: anti-ARG2 antibody, second generation lead, VH SEQ ID NO: 272, VL SEQ ID NO: 277 (antibody, listed as Homo sapiens, V domains shown, C0021158) VH: EVQLLESGGGLVQPGGSLRLSCAASGFTFRYEVAAWVRQAPGKGLEWVSAISGPIPKGYYADSVKGRFTISRDNSKNTLYLQMNSLRAEDTAVYYCARLRADLGLYMDLWGRGTLVTVPS VL: QSVLTQPPSVSAAPGQKVTISCSGSSSNIGNHYVSWYQQLPGTAPKLLIYDNSERTAGVPDRFSGSKSGTSATLGITGLQTGDEADYYCGTWDELTSNLVFGGGTKLTVL |  |  | < 900 | 94
3 | C0021139: anti-ARG2 antibody, VH SEQ ID NO: 212, VL SEQ ID NO: 217 (antibody, listed as Homo sapiens, V domains shown, C0021139) VH: EVQLLESGGGLVQPGGSLRLSCAASGFTFQYDYQVWVRQAPGKGLEWVSAISGSGGSTYYADSVKGRFTISRDNSKNTLYLQMNSLRAEDTAVYYCARLRADLGLYMDLWGRGTLVTVSS VL: QSVLTQPPSVSAAPGQKVTISCSGSSSNIGNHYVSWYQQLPGTAPKLLIYDNSERTSGIPDRFSGSKSGTSATLGITGLQTGDEADYYCGTWDELTSNLVFGGGTKLTVL | < 1000 | 84 |  | 
4 | C0021092: anti-ARG2 antibody, VH SEQ ID NO: 92, VL SEQ ID NO: 97 (antibody, listed as Homo sapiens, V domains shown, C0021092) VH: EVQLLESGGGLVQPGGSLRLSCAASGFTFSRYAMSWVRQAPGKGLEWVSAHTHSPGSTYYADSVKGRFTISRDNSKNTLYLQMNSLRAEDTAVYYCARLRADLGLYMDLWGRGTLVTVSS VL: QSVLTQPPSVSAAPGQKVTISCSGSSSNIGNHYVSWYQQLPGTAPKLLIYNSVARPSGIPDRFSGSKSGTSATLGITGLQTGDEADYYCGTWDSSLSALVFGGGTKLTVL | < 900 | 92 |  | 
5 | C0021133: anti-ARG2 antibody, VH SEQ ID NO: 192, VL SEQ ID NO: 197 (antibody, listed as Homo sapiens, V domains shown, C0021133) VH: EVQLLESGGGLVQPGGSLRLSCAASGFTFRYDHHVWVRQAPGKGLEWVSAISGSGGSTYYADSVKGRFTISRDNSKNTLYLQMNSLRAEDTAVYYCARLRADLGLYMDLWGRGTLVTVSS VL: QSVLTQPPSVSAAPGQKVTVSCSGSSSNIGNHYVSWYQQLPGTAPKLLIYDTTVLSSGIPDRFSGSKSGTSATLGITGLQTGDEADYYCGTWDELTSNLVFGGGTKLTVL | < 700 | 90 |  | 
6 | C0021022: anti-ARG2 antibody, VH SEQ ID NO: 42, VL SEQ ID NO: 47 (antibody, listed as Homo sapiens, V domains shown, C0021022) VH: EVQLLESGGGLVQPGGSLRLSCAASGFTFSSYAMSWVRQAPGKGPEWVSAISGFSPYYADSVKGRFTISRDNSKNTLYLQMNSLRAEDTAVYYCARLRADLGLYMDLWGRGTLVTVSS VL: QSVLTQPPSVSAAPGQKVTISCSGSSSNIGNHYVSWYQQLPGTAPKLLIYDNSERPSGIPDRFSGSKSGTSATLGITGLQTGDEADYYCGTWDSSLSALVFGGGTKLTVL | < 1000 |  |  | 
7 | C0021065: anti-ARG2 antibody, VH SEQ ID NO: 72, VL SEQ ID NO: 77 (antibody, listed as Homo sapiens, V domains shown, C0021065) VH: EVQLLESGGGLVQPGGSLRLSCAASGFTFSSYAMSWVRQAPGKGPEWVSAISGFSPYYADSVKGRFTISRDNSRNTLYLQMNSLRAEDTAVYYCARLRADLGLYMDLWGRGTLVTVSS VL: QSVLTQPPSVSAAPGQKVTISCSGSSSNIGNHYVSWYQQLPGTAPKLLIYDTDHMASGIPDRFSGSKSGTSATLGITGLQTGDEADYYCGTWDSSLSALVFGGGTKLTVL | < 900 | 101 |  | 
8 | C0021177: anti-ARG2 antibody, VH SEQ ID NO: 322, VL SEQ ID NO: 327 (antibody, listed as Homo sapiens, V domains shown, C0021177) VH: EVQLLESGGGLVQPGGSLRLSCAASGFTFRYEVAAWVRQAPGKGLEWVSAISGPAPKGYYADSVKGRFTISRDNSKNTLYLQMNSLRAEDTAVYYCARLRADLGLYMDLWGRGTLVTVSS VL: QSELTQPPTASAAPGQKVTISCSGSSSNIGNHYVSWYQQLPGTAPKLLIYDTTVLSSGIPDRFSGSKSGTSATLGITGLQTGDEADYYCGTWDELTSNLVFGGGTKLTVL |  |  | < 900 | 90
9 | C0021180: anti-ARG2 antibody, VH SEQ ID NO: 332, VL SEQ ID NO: 337 (antibody, listed as Homo sapiens, V domains shown, C0021180) VH: EVQLLESGGGLVQPGGSLRLSCAASGFTFRYEVAAWVRQAPGKGLEWVSAISGPIPKGYYADSVKGRFTISRDNSKNTLYLQMNSLRAEDTAVYYCARLRADLGLYMDLWGRGTLVTVSS VL: QSVLTQPPTVSAAPGRKVTISCSGSSSNIGDHHVSWYQQLPGAAPKLLIYDTDHMASGIPDRFSGSRSGTSATLGITGLQTGDEADYYCGTWDSSLSALVFGGGTKLTVL |  |  | < 900 | 96

— patent publication US20220403048A1, “BINDING MOLECULES TO ARGINASE II [ARG2]” (Cancer Research Technology Limited, priority 2019, published 2022)
